Measurements from PMC3773880.

What was measured:
[1] = biological target: high molecular weight gingipain R (HRgpA) (Porphyromonas gingivalis); test: enzyme inhibition kinetics
[2] = biological target: low molecular weight gingipain R (RgpB) (Porphyromonas gingivalis) (UniProt P95493); test: enzyme inhibition kinetics
[3] = biological target: high molecular weight gingipain R (HRgpA) (Porphyromonas gingivalis)

Substance	Ki [2] [nM]	also measured
PD_(RgpA), recombinant N-terminal prodomain of RgpA (from UniProt P28784 24-227) (domain or fragment)		Ki [1]: 0.85 nM
PD_(RgpB) R66A (domain or fragment)	4.9	
PD_(RgpB) R66K (domain or fragment)	31	
PD_(RgpB) R102A (domain or fragment)	> 5000	
PD_(RgpB) R102E (domain or fragment)	> 5000	
PD_(RgpB) R102K (domain or fragment)	45.6	
PD_(RgpB) R102Q (domain or fragment)	> 5000	
PD_(RgpB) R159K (domain or fragment)	7.7	
PD_(RgpB), recombinant N-terminal prodomain of RgpB (from UniProt P95493 25-229) (domain or fragment)		IC50 of inhibition of amidolytic activity (L-BAPNA), 10 nM enzyme [3]: 12.6 nM; IC50 of inhibition of aminopeptidase activity (H-Arg-AMC), 10 nM enzyme [3]: 4.9 nM; IC50 of inhibition of proteolytic activity (Azocoll), 10 nM enzyme [3]: 5.8 nM; Ki [1]: 5.3 nM
